# According to WO2025083273A1 (dated 2025):
# T1: human DR3 (TNFRSF25) expressed on cells (human, UniProt Q93038 25-417)
# T1 sequence: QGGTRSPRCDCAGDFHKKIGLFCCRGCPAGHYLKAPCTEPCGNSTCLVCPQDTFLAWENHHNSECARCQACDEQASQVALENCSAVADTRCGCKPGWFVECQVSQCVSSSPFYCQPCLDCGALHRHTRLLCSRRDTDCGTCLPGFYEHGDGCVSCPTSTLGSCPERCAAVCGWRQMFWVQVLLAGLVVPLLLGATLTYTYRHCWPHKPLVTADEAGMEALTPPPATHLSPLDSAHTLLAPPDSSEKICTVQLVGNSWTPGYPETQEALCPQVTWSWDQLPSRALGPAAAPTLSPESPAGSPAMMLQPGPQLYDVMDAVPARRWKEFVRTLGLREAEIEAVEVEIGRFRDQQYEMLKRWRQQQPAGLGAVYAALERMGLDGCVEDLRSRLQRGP
# T2: DR3-8i (human)
# T2 construct: also called purified monomeric DR3-8i antigen protein
# T2 chain: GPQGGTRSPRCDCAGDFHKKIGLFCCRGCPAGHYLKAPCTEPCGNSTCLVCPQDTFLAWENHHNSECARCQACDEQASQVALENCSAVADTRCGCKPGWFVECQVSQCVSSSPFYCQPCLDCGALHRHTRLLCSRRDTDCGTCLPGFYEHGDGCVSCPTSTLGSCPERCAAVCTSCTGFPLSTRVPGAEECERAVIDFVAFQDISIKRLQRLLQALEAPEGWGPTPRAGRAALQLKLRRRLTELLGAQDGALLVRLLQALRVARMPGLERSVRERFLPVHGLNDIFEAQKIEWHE
# Legend:
# [1] = biological target: T1, human DR3 (TNFRSF25) expressed on cells; experiment: cell-based or functional assay
# DR3-8i [2] = biological target: T2, DR3-8i; experiment: BLI, IgG captured on protein A, DR3-8i in solution; single experiment, column not clear
# DR3-8i [3] = biological target: T2, DR3-8i; experiment: BLI, IgG captured on protein A, DR3-8i in solution; Average
# DR3-8i [4] = biological target: T2, DR3-8i; experiment: BLI, IgG captured on protein A, DR3-8i in solution; Experiment 1
# DR3-8i [5] = biological target: T2, DR3-8i; experiment: BLI, IgG captured on protein A, DR3-8i in solution; Experiment 2
Signal (FLU) [1],Kd (DR3-8i [2]),"EC50 (pM), DR3 Jurkat reporter [1]",Kd (DR3-8i [3]),Kd (DR3-8i [4]),Kd (DR3-8i [5]),Binder
2.75e+06 FLU,–,–,0.326 nM,0.418 nM,0.234 nM,"VHg10/VLg6 (antibody, human IgG1, V domains shown, human IgG1) VH: EVQLVESGGGLVQPGGSLRLSCAASGFTFSSYAMSWVRQAPGKGLEWVSTISDGDSYSYFPDSVKDRFTISRDNSKNTLYLQMNSLRAEDTAVYYCARDRIYGSVQYYAMDYWGQGTLVTVSS VL: DVVMTQSPPSLPVTPGEPASISCRASESVEFSGTSLMQWYLQKPGQSPQVLIYAASNVESGVPDRFSGSGSGTDFTLKISRVEAEDVGVYYCQQSRKLPYTFGQGTRLEIK"
2.66e+06 FLU,–,1770 pM,0.427 nM,0.464 nM,0.389 nM,"VHg3/VLg13 (antibody, human IgG1, V domains shown, human IgG1) VH: EVQLVQSGGGLVKPGGSLRLSCAASGFKFSSYAMSWVRQAPGKGLEWLSTISDGDSYSYFPDSVKDRFIISRDNAKNSLYLQMNSLRVEDTGVYYCARDRIYGSVQYYAMDYWGQGTLVTVSS VL: DIQMTQSPSSLSASVGDRVTITCRASESVEFSGTSLMQWYQQKPGKAPKLLIYAASNVESGVPSRFSGSGSGTDFTFTISSLQPEDIATYYCQQSRKLPYTFGQGTKLEIK"
2.76e+06 FLU,0.132 nM,–,–,–,–,"VHg5/VLg2 (antibody, human IgG1, V domains shown, human IgG1) VH: QVQLQQSGGGLVQAGGSLRLSCAASGFTFTSYAMSWVRQAPGKGLEWVATISDGDSYSYFPDSVKDRFIISRDNAKNSLFLQMNSLRAEDTAVYYCARDRIYGSVQYYAMDYWGRGTLVTVSS VL: DIQLTQSPSSLSASVGDRVTITCRASESVEFSGTSLMQWYQQKAGLAPKLLIYAASNVESGVPSRFSGSGSGTDFTLTISSLQPEDFGTYYCQQSRKLPYTFGQGTRLEIK"
3.56e+06 FLU,–,132 pM,0.181 nM,0.175 nM,0.188 nM,"VHg10/VLg12 (antibody, human IgG1, V domains shown, human IgG1) VH: EVQLVESGGGLVQPGGSLRLSCAASGFTFSSYAMSWVRQAPGKGLEWVSTISDGDSYSYFPDSVKDRFTISRDNSKNTLYLQMNSLRAEDTAVYYCARDRIYGSVQYYAMDYWGQGTLVTVSS VL: EIVLTQSPATLSLSPGERATLSCRASESVEFSGTSLMQWYQQKPGQAPRLLIYAASNVESGIPARFSGSGSGTDFTLTISSLEPEDFAVYYCQQSRKLPYTFGQGTKLEIK"
2.44e+06 FLU,–,118 pM,0.193 nM,0.227 nM,0.159 nM,"VHg6/VLg2 (antibody, human IgG1, V domains shown, human IgG1) VH: QVQLQQSGGGLVQPGGSLRLSCAASGFTFSSYAMSWVRQAPGKGLEWVATISDGDSYSYFPDSVKDRFTISRDNARNSLYLQMNSLRAEDTAVYYCARDRIYGSVQYYAMDYWGRGTLVTVSS VL: DIQLTQSPSSLSASVGDRVTITCRASESVEFSGTSLMQWYQQKAGLAPKLLIYAASNVESGVPSRFSGSGSGTDFTLTISSLQPEDFGTYYCQQSRKLPYTFGQGTRLEIK"
2.94e+06 FLU,0.157 nM,–,–,–,–,"VHg2/VLg13 (antibody, human IgG1, V domains shown, human IgG1) VH: QMQLVQSGGGLVKPGGSLRLSCAASGFTFSSYAMSWIRQAPGKGLEWVSTISDGDSYSYFPDSVKDRFTISRDNAKNSLYLQMNSLRAEDTAVYYCTRDRIYGSVQYYAMDYWGRGTLVTVSS VL: DIQMTQSPSSLSASVGDRVTITCRASESVEFSGTSLMQWYQQKPGKAPKLLIYAASNVESGVPSRFSGSGSGTDFTFTISSLQPEDIATYYCQQSRKLPYTFGQGTKLEIK"

# Continued, binder first:
Binder,Signal (FLU) [1],Kd (DR3-8i [2]),"EC50 (pM), DR3 Jurkat reporter [1]",Kd (DR3-8i [3]),Kd (DR3-8i [4]),Kd (DR3-8i [5])
"VHg1/VLg4 (antibody, human IgG1, V domains shown, human IgG1) VH: QVQLVQSGGGLVQPGGSLRLSCAASGFTFSSYAMSWVRQAPGKGLEWVSTISDGDSYSYFPDSVKDRFTISRDNSKNTLYLQMNSLRAEDTSVYYCARDRIYGSVQYYAMDYWGQGTLVTVSS VL: DVVMTQSPDSLAVSLGERATISCRASESVEFSGTSLMQWYQQKPRQPLKLLIYAASNVESGVPDRFSGSGSGTDFTLTISSLQAEDVAVYYCQQSRKLPYTFGQGTRLEIK",2.09e+06 FLU,0.196 nM,–,–,–,–
"VHg2/VLs10 (antibody, human IgG1, V domains shown, human IgG1; also called VHg2_VLg10) VH: QMQLVQSGGGLVKPGGSLRLSCAASGFTFSSYAMSWIRQAPGKGLEWVSTISDGDSYSYFPDSVKDRFTISRDNAKNSLYLQMNSLRAEDTAVYYCTRDRIYGSVQYYAMDYWGRGTLVTVSS VL: ETTLTQSPGTLSLSPGERATLSCRASQSVSSSSLAWYQQKPGQAPRLLIYGASSRATGIPDRFSGSGSGTDFTLTISRLEPEDFAVYYCHQYGGSWTFGKGTKVEIK",2.34e+06 FLU,–,644 pM,0.415 nM,0.41 nM,0.42 nM
"VHg1/VLg2 (antibody, human IgG1, V domains shown, human IgG1) VH: QVQLVQSGGGLVQPGGSLRLSCAASGFTFSSYAMSWVRQAPGKGLEWVSTISDGDSYSYFPDSVKDRFTISRDNSKNTLYLQMNSLRAEDTSVYYCARDRIYGSVQYYAMDYWGQGTLVTVSS VL: DIQLTQSPSSLSASVGDRVTITCRASESVEFSGTSLMQWYQQKAGLAPKLLIYAASNVESGVPSRFSGSGSGTDFTLTISSLQPEDFGTYYCQQSRKLPYTFGQGTRLEIK",2.44e+06 FLU,–,336 pM,0.159 nM,0.316 nM,0.00202 nM
"VHg2/VLg2 (antibody, human IgG1, V domains shown, human IgG1) VH: QMQLVQSGGGLVKPGGSLRLSCAASGFTFSSYAMSWIRQAPGKGLEWVSTISDGDSYSYFPDSVKDRFTISRDNAKNSLYLQMNSLRAEDTAVYYCTRDRIYGSVQYYAMDYWGRGTLVTVSS VL: DIQLTQSPSSLSASVGDRVTITCRASESVEFSGTSLMQWYQQKAGLAPKLLIYAASNVESGVPSRFSGSGSGTDFTLTISSLQPEDFGTYYCQQSRKLPYTFGQGTRLEIK",2.5e+06 FLU,–,103 pM,0.106 nM,0.001 nM,0.21 nM
"VHg6/VLg1 (antibody, human IgG1, V domains shown, human IgG1) VH: QVQLQQSGGGLVQPGGSLRLSCAASGFTFSSYAMSWVRQAPGKGLEWVATISDGDSYSYFPDSVKDRFTISRDNARNSLYLQMNSLRAEDTAVYYCARDRIYGSVQYYAMDYWGRGTLVTVSS VL: DVVMTQSPDSLAVSLGERATINCRASESVEFSGTSLMQWYQQKPGQPPKLLIYAASNVESGVPDRFSGSGSGTDFTLTISSLQAEDVVVYYCQQSRKLPYTFGGGTKVEIK",2.16e+06 FLU,0.076 nM,–,–,–,–
"VHg3/VLg4 (antibody, human IgG1, V domains shown, human IgG1) VH: EVQLVQSGGGLVKPGGSLRLSCAASGFKFSSYAMSWVRQAPGKGLEWLSTISDGDSYSYFPDSVKDRFIISRDNAKNSLYLQMNSLRVEDTGVYYCARDRIYGSVQYYAMDYWGQGTLVTVSS VL: DVVMTQSPDSLAVSLGERATISCRASESVEFSGTSLMQWYQQKPRQPLKLLIYAASNVESGVPDRFSGSGSGTDFTLTISSLQAEDVAVYYCQQSRKLPYTFGQGTRLEIK",2.32e+06 FLU,0.385 nM,–,–,–,–
"VHg5/VLg11 (antibody, human IgG1, V domains shown, human IgG1) VH: QVQLQQSGGGLVQAGGSLRLSCAASGFTFTSYAMSWVRQAPGKGLEWVATISDGDSYSYFPDSVKDRFIISRDNAKNSLFLQMNSLRAEDTAVYYCARDRIYGSVQYYAMDYWGRGTLVTVSS VL: DIVMTQSPDSLAVSLGERATINCRASESVEFSGTSLMQWYQQKPGQPPKLLIYAASNVESGVPDRFSGSGSGTDFTLTISSLQAEDVAVYYCQQSRKLPYTFGQGTKLEIK",2.4e+06 FLU,0.0881 nM,–,–,–,–
"VHg2/VLg4 (antibody, human IgG1, V domains shown, human IgG1) VH: QMQLVQSGGGLVKPGGSLRLSCAASGFTFSSYAMSWIRQAPGKGLEWVSTISDGDSYSYFPDSVKDRFTISRDNAKNSLYLQMNSLRAEDTAVYYCTRDRIYGSVQYYAMDYWGRGTLVTVSS VL: DVVMTQSPDSLAVSLGERATISCRASESVEFSGTSLMQWYQQKPRQPLKLLIYAASNVESGVPDRFSGSGSGTDFTLTISSLQAEDVAVYYCQQSRKLPYTFGQGTRLEIK",2.21e+06 FLU,0.0248 nM,–,–,–,–
"VHg5/VLg12 (antibody, human IgG1, V domains shown, human IgG1) VH: QVQLQQSGGGLVQAGGSLRLSCAASGFTFTSYAMSWVRQAPGKGLEWVATISDGDSYSYFPDSVKDRFIISRDNAKNSLFLQMNSLRAEDTAVYYCARDRIYGSVQYYAMDYWGRGTLVTVSS VL: EIVLTQSPATLSLSPGERATLSCRASESVEFSGTSLMQWYQQKPGQAPRLLIYAASNVESGIPARFSGSGSGTDFTLTISSLEPEDFAVYYCQQSRKLPYTFGQGTKLEIK",2.62e+06 FLU,0.126 nM,–,–,–,–
"VHg5/VLg13 (antibody, human IgG1, V domains shown, human IgG1) VH: QVQLQQSGGGLVQAGGSLRLSCAASGFTFTSYAMSWVRQAPGKGLEWVATISDGDSYSYFPDSVKDRFIISRDNAKNSLFLQMNSLRAEDTAVYYCARDRIYGSVQYYAMDYWGRGTLVTVSS VL: DIQMTQSPSSLSASVGDRVTITCRASESVEFSGTSLMQWYQQKPGKAPKLLIYAASNVESGVPSRFSGSGSGTDFTFTISSLQPEDIATYYCQQSRKLPYTFGQGTKLEIK",2.7e+06 FLU,0.124 nM,–,–,–,–
